How the values were obtained:
[1] = Stability in saline solution (0.9% NaCl) and human serum by radio-HPLC; format: physicochemical; settings: in both saline and serum
Procedure: To evaluate the radiochemical purity, a reversed-phase HPLC system with Waters Millenium 32 software coupled to an in-line UV-Vis and radioactivity detector was used, as previously detailed. To recover free ^225Ac and ^225Ac-HEHA-iPSMA, fractions of 1.0 mL were collected, and the activity quantification was through the 218 keV-gamma emission of Fr-221 by assuming secular equilibrium.

HCT116 cells = assay: Viability (cytotoxicity) assay at 24 h; format: cell-based, human; settings: 2 to 4 Gy
Procedure: Cytotoxic assays were performed in triplicate (n = 6) using HCT116 cells. After harvesting each cell line, 10,000 cells per well were placed in a 96-well plate and incubated at 37 °C to allow adherence. After 24 h, the culture medium was removed, and treatments (2 Gy, 4 Gy) were placed in each well. To deliver 2 and 4 Gy of radiation dose, 6 Bq/well and 12 Bq/well were added and exposed for 15 h. Then, the treatments were removed and replaced with the medium. The cytotoxicity was evaluated at 24 h by using the Cell proliferation assay (Roche Diagnostics GmbH, Mannheim, Germany). Statistical analysis was performed with two-way ANOVA followed by Tukey’s multiple comparisons test using GraphPad Prism 5.0 Software. Data are shown as mean ± SEM. A p < 0.05 was considered statistically significant.

[2] = test system: phosphorylated H2A.X in HCT116 cells; assay: DNA double-stranded breaks assay (phosphorylated H2A.X foci); format: cell-based, human; settings: HCT116, 2 Gy and 4 Gy
Procedure: For the evaluation of DNA double-stranded breaks (DSBs), the phosphorylation of the Ser-139 gamma histone variant H2A.X (γH2A.X) was used as a biomarker. HCT116 cells were grown on a glass slide after exposure of 4.5 Bq (2 Gy) and 9.0 Bq (4 Gy) of ^225Ac-iPSMA-RGD for 60 min. The anti-phospho-histone H2A.X (ser139) cl 6L16 ZooMAb (Cat. ZRB05636, Merck, Darmstadt, Germany) antibody was used as the primary antibody. […] To quantify the foci, clear and easily distinguishable dots were counted. At least 30 cells were imaged per slide, and the average number of foci per cell was calculated. Statistical analysis was performed with two-way ANOVA followed by Tukey’s multiple comparisons test using GraphPad Prism 5.0 Software. Data are shown as mean ± SEM. A p < 0.05 was considered statistically significant.

[3] = test system: HCT116 tumor and lung, spleen, kidney, liver tissues; assay: Histology (H&E) and immunohistochemistry of organs and tumor; format: in vivo, mice
Procedure: Formalin-fixed paraffin-embedded samples (lung, spleen, kidney and tumor), were sectioned at 4 µm sections and stained with H&E. For immunohistochemical reactions, samples were deparaffinized, hydrated, and subjected to an antigen retrieval protocol (slides were immersed in a prewarmed Citrate-EDTA buffer solution (10mM citric acid, 2 mM EDTA, 0.05% Tween 20, pH 7.0) at 100 °C for 30 min. Endogenous peroxidase was then blocked with 0.9% hydrogen peroxide (H2O2) solution for 5 min. To prevent non-specific binding, the samples were incubated with 5% bovine serum albumin (BSA) for 10 min. After subsequent washes with phosphate-buffered saline (PBS)-Tween (0.05%), samples were incubated overnight at 4 °C with primary monoclonal rabbit anti- Ki-67 [SP6] antibody (Biocare Medi-cal-CRM 325A, Pacheco, CA, USA). After subsequent washing, samples were incubated with secondary HRP donkey anti-rabbit IgG (minimal x-reactivity) antibody (Biolegend-406401 San Diego, CA) for 1 h. For mitochondrial permeabilization processes estimation, the samples were incubated overnight at 4 °C with unconjugated Bcl-2 (C2) sc-7882 antibody (Santa Cruz Biotechnology Inc., Dallas, TX, USA). As a secondary antibody, we used m-IgG1 BP-HRP: sc-525408 (Santa Cruz Biotechnology Inc., Dallas, TX, USA). Samples were incubated for 1 h. For apoptotic cell estimation, unconjugated active (cleaved) Caspase-3 Monoclonal Antibody bsm-33199M (Bioss Inc., Woburn, MA, USA) was used. The samples were incubated overnight at 4 °C, and the secondary antibody was goat Anti-Mouse IgG (Fc specific)–peroxidase antibody A2554 (Millipore-Sigma Aldrich, Merck KGaA, Darmstadt, Germany). Samples were incubated for 1 h. Both primary and secondary antibodies were used at a 1:100 dilution. To visualize the immunoreactions, the samples were washed with distilled water and Tris-buffered saline-Tween (TBST) for 5 min, and the diaminobenzidine (DAB) (Dako Liquid DAB+ Substrate Chromogen System K3468) was applied for 60 s. Excess chromogen was removed by washing with PBS-Tween. Finally, the slides were counterstained with Harris hematoxylin, dehydrated, and coverslipped. As a negative control, immunoreactions were performed using the same method with PBS instead of the primary antibody. Images were captured using a Lumenera INFINITY X-32 MP camera in a Carl Zeiss Axiostar microscope.

[4] = HCT116 tumor-bearing mice, 11 days after administration (37 kBq)
Procedure: All animal procedures followed the Ethical Regulations for the Handling of Laboratory Animals (NOM-062-ZOO-1999) and the requirements of the Institutional Animal Care and Use Committee, according to an approved protocol (CICUAL-08-2018-2021). […] Mice were injected with 3.7 kBq (50 µL) of ^225Ac-iPSMA-RGD and necropsied at 1, 3, 24, 72, and 96 h (n = 3). The liver, heart, kidney, pancreas, lung, spleen, small intestine, and stomach were measured using the Francium-221 photopeak (218 keV) in a hyperpure germanium gamma spectrometer (Ortec, Atlanta, GA, USA). Results were recorded as a percentage of injected dose (%ID) per organ. Blood and bone samples were also dissected, and the associated activity was recorded as %ID/g. A second group of mice was inoculated subcutaneously with 1 × 10^6 HCT116 cells. […] Animals were necropsied on day 11 post-treatment, as described above. Radioisotopic/X-ray ex vivo images of the source organs and tumor were obtained in a preclinical imaging system (Bruker, XTREME, Billerica, MA, USA).

[5] = HCT116 tumor, immunohistochemistry

Structure (SMILES): N=C(N)NCCC[C@@H]1NC(=O)[C@H](CCCCNC(=O)CCCN2C(=O)CC(SC[C@H](NC(=O)c3ccc(NNC(=S)Nc4ccc(CC5CN(CC(=O)O)CCN(CC(=O)O)CCN(CC(=O)O)CCN(CC(=O)O)CCN(CC(=O)O)CCN5CC(=O)O)cc4)nc3)C(=O)N[C@@H](Cc3ccc4ccccc4c3)C(=O)NCCCC[C@H](NC(=O)N[C@@H](CCC(=O)O)C(=O)O)C(=O)O)C2=O)NC(=O)[C@@H](Cc2ccccc2)NC(=O)[C@H](CC(=O)O)NC(=O)CNC1=O (stereo partly shown) [^225Ac-iPSMA-RGD, ^225Ac-HEHA-HYNIC-iPSMA-RGD, metal not drawn]
- Decrease of radiochemical purity ([1]; 5 h after preparation): 2%
- Decrease of radiochemical purity ([1]; 24 h after preparation): 10%
- Decrease of radiochemical purity ([1]; 72 h after preparation): 30%
- Cell viability (HCT116 cells): dose-dependent decrease in cell viability
- Average foci of phosphorylated H2A.X [2]: 19
- Bcl-2 expression in tumor [3, 5]: inhibited the Bcl-2 expression
- Caspase-3 activity in tumor [3, 5]: upregulated the Caspase-3 activity
- Tumor proliferative activity (Ki67 expression) vs untreated mice [3, 5]: significantly lower
- Histological (H&E) evaluation of lung, spleen, kidney and liver ([3]; treated mice vs untreated mice): no pathologic changes
- Tissue retention in ex-vivo radioisotopic imaging [4]: the tissue accumulating the radiotracer for the longest time is the tumor

From paper PMC10705946, “^225Ac-iPSMA-RGD for Alpha-Therapy Dual Targeting of Stromal/Tumor Cell PSMA and Integrins” (International Journal of Molecular Sciences, 2023)
